# According to the supplement of paper PMC6757056:
# ± gives the standard deviation of the averaged measurements.
# B1: library; a variant is named by its letters at N, in order (parent)
# chain: GCUGUCACCGGUGUAUUACCCUAGUGGUCGACCGGUCUGAUGAGUCUNNNNNNAGACGAAACAGC
# Columns and labels:
# hypoxanthine [1] = variants of: B1; test: FACS-Seq fitted mean relative fluorescence mCherry/BFP without ligand (log10 relative fluorescence); ligand: hypoxanthine (xanthine aptamer); higher = higher reporter protein expression; conditions: HEK293T, ligand present: no
# How it was run: (§1)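 An mCherry reporter containing the ribozyme switch and an EF1α-BFP marker were introduced by lentivirus into HEK293T libraries. Cells were enriched, incubated 48 h with or without ligand, sorted into 6 bins by mCherry/BFP, and bin genomic DNA was PCR-amplified, barcoded and sequenced on MiSeq. Fluorescence represents the normalized fitted normal mean of the bin counts. Fitting was done on log10(mCherry/BFP), scaling to five spiked-in control ribozymes.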
# hypoxanthine [2] = variants of: B1; test: normalized RNA/DNA level with ligand (relative to sTRSVctl = 100) (log10 (% of sTRSVctl)); ligand: hypoxanthine (xanthine aptamer); higher = less ribozyme self-cleavage, higher mRNA level; conditions: ligand concentration (+) RNA-Seq: 5 mM, HEK293T, reporter: mCherry (pCS4076), ligand present: yes
# Protocol: (§2)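 Hammerhead (sTRSV) ribozyme switch libraries with a ligand aptamer grafted on stem I and a randomized N4-6 loop II, cloned into the 3' UTR of mCherry and transiently transfected into HEK293T cells; RNA-Seq 72 h post transfection with ligand added 1 h before transfection; RNA read count / plasmid DNA read count normalized to the non-cleaving sTRSVctl (x100), log10; sequences with >100 DNA reads. FACS-Seq: lentiviral library sorted into 6 bins after 48 h ligand, log-normal fit mean of mCherry/BFP scaled to controls. Printed sequences are partial switch sequences.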
# hypoxanthine [3] = variants of: B1; test: normalized RNA/DNA level without ligand (relative to sTRSVctl = 100) (log10 (% of sTRSVctl)); ligand: hypoxanthine (xanthine aptamer); higher = less ribozyme self-cleavage, higher mRNA level; conditions: HEK293T, reporter: mCherry (pCS4076), ligand present: no
# Protocol: as §2
# hypoxanthine [4] = variants of: B1; test: FACS-Seq fitted mean relative fluorescence mCherry/BFP with ligand (log10 relative fluorescence); ligand: hypoxanthine (xanthine aptamer); ligand concentration (+) FACS-Seq: 5 mM; higher = higher reporter protein expression; conditions: HEK293T, ligand present: yes
# How it was run: as §1
Variant,FACS-Seq fitted mean (log10) (hypoxanthine [1]),normalized RNA/DNA level with ligand (log10) (hypoxanthine [2]),normalized RNA/DNA level without ligand (log10) (hypoxanthine [3]),FACS-Seq fitted mean (log10) (hypoxanthine [4])
CAUUGA,0.221 ± 0.12,1.912 ± 0.0057,1.82 ± 0.053,0.32 ± 0.0063
CCAAUG,0.585 ± 0.11,1.929 ± 0.011,1.61 ± 0.046,0.683 ± 0.023
GAUGUU,0.33 ± 0.0059,1.914 ± 0.017,1.841 ± 0.0059,0.447 ± 0.029
GAUGUG,0.2 ± 0.026,1.82 ± 0.019,1.31 ± 0.06,0.673 ± 0.077
CAUGAG,-0.0522 ± 0.019,1.924 ± 0.011,1.562 ± 0.0089,0.35 ± 0.039
CAUGAU,0.296 ± 0.088,1.905 ± 0.0035,1.73 ± 0.032,0.333 ± 0.077
CAUGAA,0.0197 ± 0.067,1.87 ± 0.026,1.68 ± 0.022,0.341 ± 0.056
CAUGAC,-0.299 ± 0.099,1.937 ± 0.006,1.793 ± 0.017,0.254 ± 0.046
GAUUAU,0.368 ± 0.062,1.945 ± 0.0077,1.839 ± 0.012,0.455 ± 0.019
GAUUAA,0.276 ± 0.0053,1.949 ± 0.012,1.79 ± 0.044,0.381 ± 0.012
GAUUAC,0.748 ± 0.036,1.935 ± 0.0039,1.8 ± 0.049,0.749 ± 0.12
GAUUAG,0.0562 ± 0.066,1.86 ± 0.075,1.39 ± 0.014,0.539 ± 0.085
GAUGAC,0.654 ± 0.023,1.92 ± 0.02,1.72 ± 0.023,0.526 ± 0.07
GAUGAG,0.0708 ± 0.0074,1.74 ± 0.028,1.3 ± 0.067,0.572 ± 0.047
GAUGAA,0.529 ± 0.025,1.886 ± 0.0083,1.711 ± 0.013,0.52 ± 0.051
GAUGAU,0.537 ± 0.094,1.91 ± 0.05,1.767 ± 0.015,0.495 ± 0.025
UAUGGG,0.525 ± 0.08,1.857 ± 0.0095,1.41 ± 0.084,0.723 ± 0.072
UAUGGU,0.514 ± 0.064,1.88 ± 0.036,1.527 ± 0.004,0.643 ± 0.029
UAUGGC,-0.121 ± 0.027,1.92 ± 0.012,1.82 ± 0.022,0.322 ± 0.0061
GAUAGG,-0.0874 ± 0.036,1.737 ± 0.017,1.27 ± 0.04,0.506 ± 0.068
GAUAGA,0.3713 ± 0.0031,1.89 ± 0.052,1.592 ± 0.01,0.547 ± 0.025
UCAAAU,0.4822 ± 0.0021,1.92 ± 0.02,1.77 ± 0.036,0.54 ± 0.053
UCAAAA,0.491 ± 0.022,1.934 ± 0.013,1.717 ± 0.0054,0.446 ± 0.019
UCAAAG,-0.374 ± 0.059,1.92 ± 0.072,1.68 ± 0.039,-0.184 ± 0.025

Variant,FACS-Seq fitted mean (log10) (hypoxanthine [1]),normalized RNA/DNA level with ligand (log10) (hypoxanthine [2]),normalized RNA/DNA level without ligand (log10) (hypoxanthine [3]),FACS-Seq fitted mean (log10) (hypoxanthine [4])
GCAAUA,0.126 ± 0.036,1.941 ± 0.016,1.87 ± 0.026,0.466 ± 0.071
GCAAUC,0.498 ± 0.03,1.98 ± 0.058,1.77 ± 0.0096,0.531 ± 0.046
GCAAUG,0.028 ± 0.018,1.87 ± 0.05,1.436 ± 0.0057,0.443 ± 0.04
AAUAGA,0.386 ± 0.012,1.89 ± 0.027,1.63 ± 0.052,0.44 ± 0.055
AAUAGU,0.36 ± 0.029,1.87 ± 0.027,1.61 ± 0.016,0.505 ± 0.041
AAUAGC,0.38 ± 0.038,1.924 ± 0.0031,1.734 ± 0.0066,0.681 ± 0.17
AAUAGG,0.109 ± 0.012,1.75 ± 0.046,1.28 ± 0.1,0.509 ± 0.025
GAUAUA,0.804 ± 0.057,1.91 ± 0.034,1.8 ± 0.061,0.741 ± 0.0099
GAUAUG,0.0367 ± 0.045,1.85 ± 0.029,1.39 ± 0.017,0.215 ± 0.097
UAUUCA,0.158 ± 0.15,1.942 ± 0.0084,1.925 ± 0.0052,0.144 ± 0.082
UAUGUG,-0.0408 ± 0.016,1.91 ± 0.022,1.7 ± 0.034,0.0665 ± 0.031
UAUGUC,-0.423 ± 0.035,1.944 ± 0.011,1.95 ± 0.053,-0.356 ± 0.048
CAUAGA,1.171 ± 0.0012,1.931 ± 0.0061,1.767 ± 0.0051,0.849 ± 0.08
CAUACG,0.394 ± 0.013,1.903 ± 0.016,1.88 ± 0.079,0.469 ± 0.045
AAUACG,0.407 ± 0.1,1.844 ± 0.01,1.44 ± 0.067,0.609 ± 0.057
AAUACA,0.346 ± 0.053,1.88 ± 0.05,1.801 ± 0.0096,0.496 ± 0.0044
AAUACC,0.491 ± 0.22,1.933 ± 0.019,1.895 ± 0.0024,0.448 ± 0.018
GAUCCG,0.0801 ± 0.012,1.94 ± 0.048,1.77 ± 0.051,0.31 ± 0.0077
GAUCAU,0.447 ± 0.026,1.91 ± 0.033,1.919 ± 0.018,0.521 ± 0.023
GAUCAC,0.374 ± 0.035,1.99 ± 0.068,1.87 ± 0.025,0.417 ± 0.071
GAUCAA,0.497 ± 0.07,1.9 ± 0.03,1.833 ± 0.0048,0.708 ± 0.034
GAUGGA,0.4617 ± 0.0039,1.913 ± 0.0011,1.67 ± 0.036,0.698 ± 0.029
GAUGGG,-0.0971 ± 0.21,1.81 ± 0.025,1.3 ± 0.053,0.3779 ± 0.0029
GAUGGU,0.501 ± 0.024,1.95 ± 0.07,1.76 ± 0.022,0.748 ± 0.062

Variant,FACS-Seq fitted mean (log10) (hypoxanthine [1]),normalized RNA/DNA level with ligand (log10) (hypoxanthine [2]),normalized RNA/DNA level without ligand (log10) (hypoxanthine [3]),FACS-Seq fitted mean (log10) (hypoxanthine [4])
GAUGGC,0.369 ± 0.012,1.89 ± 0.016,1.598 ± 0.0036,0.596 ± 0.041
AAUCAU,0.507 ± 0.019,1.9 ± 0.027,1.8365 ± 0.00062,0.523 ± 0.057
AAUCAC,-0.698 ± 0.014,1.95 ± 0.04,1.849 ± 0.0051,-0.545 ± 0.04
CAUUUA,-0.0161 ± 0.022,1.98 ± 0.036,1.77 ± 0.034,0.532 ± 0.019
CAUUUC,0.66 ± 0.057,1.92 ± 0.043,1.9 ± 0.069,0.774 ± 0.066
CAUCGA,0.435 ± 0.017,1.97 ± 0.052,1.84 ± 0.029,0.6297 ± 0.0034
CCAACC,0.551 ± 0.044,1.94 ± 0.021,1.95 ± 0.054,0.584 ± 0.055
CCAACU,0.611 ± 0.037,2.02 ± 0.025,1.945 ± 0.012,0.58 ± 0.015
GCAACA,-0.108 ± 0.043,1.96 ± 0.027,1.85 ± 0.059,-0.0215 ± 0.13
AAUGAU,0.38227 ± 0.00021,1.88 ± 0.041,1.683 ± 0.0061,0.571 ± 0.06
AAUGAG,0.0392 ± 0.012,1.81 ± 0.039,1.3 ± 0.022,0.472 ± 0.044
AAUGAC,0.585 ± 0.07,1.894 ± 0.0079,1.83 ± 0.049,0.5447 ± 0.0044
GCAAGA,0.209 ± 0.025,1.94 ± 0.045,1.708 ± 0.0095,0.332 ± 0.0071
UAUCCG,0.207 ± 0.053,1.927 ± 0.019,1.71 ± 0.035,0.451 ± 0.096
AAUAUA,0.619 ± 0.062,1.89 ± 0.024,1.78 ± 0.034,0.599 ± 0.07
AAUAUG,0.333 ± 0.056,1.84 ± 0.04,1.462 ± 0.014,0.53 ± 0.0062
ACAAGG,-0.00738 ± 0.11,1.83 ± 0.065,1.26 ± 0.024,0.113 ± 0.14
ACAAGC,0.743 ± 0.017,1.92 ± 0.033,1.76 ± 0.015,0.863 ± 0.082
ACAAGA,0.164 ± 0.1,1.891 ± 0.0031,1.65 ± 0.037,0.121 ± 0.037
UAUAAU,0.434 ± 0.04,1.93 ± 0.021,1.785 ± 0.0039,0.588 ± 0.067
UAUAAG,0.0362 ± 0.033,1.87 ± 0.034,1.611 ± 0.015,0.291 ± 0.019
AAUGGA,0.265 ± 0.081,1.88 ± 0.022,1.61 ± 0.038,0.192 ± 0.36
AAUGGG,0.049 ± 0.035,1.77 ± 0.052,1.25 ± 0.063,0.547 ± 0.047
